# According to patent US20150141617A1, “PRODUCTION AND PURIFICATION OF ACTIVE EUKARYOTIC FORMYLGLYCINEGENERATING ENZYME (FGE) VARIANTS” (Universität Bielefeld, priority 2013, published 2015):
# T1: human PACE4 (Homo sapiens, UniProt P29122)
# T1 construct: expressed in transfected cells; host or cells: CHO-FD11 Tet-On cells, transient co-transfection with pBI-FGE-HA
# T1 sequence (P29122 150-969): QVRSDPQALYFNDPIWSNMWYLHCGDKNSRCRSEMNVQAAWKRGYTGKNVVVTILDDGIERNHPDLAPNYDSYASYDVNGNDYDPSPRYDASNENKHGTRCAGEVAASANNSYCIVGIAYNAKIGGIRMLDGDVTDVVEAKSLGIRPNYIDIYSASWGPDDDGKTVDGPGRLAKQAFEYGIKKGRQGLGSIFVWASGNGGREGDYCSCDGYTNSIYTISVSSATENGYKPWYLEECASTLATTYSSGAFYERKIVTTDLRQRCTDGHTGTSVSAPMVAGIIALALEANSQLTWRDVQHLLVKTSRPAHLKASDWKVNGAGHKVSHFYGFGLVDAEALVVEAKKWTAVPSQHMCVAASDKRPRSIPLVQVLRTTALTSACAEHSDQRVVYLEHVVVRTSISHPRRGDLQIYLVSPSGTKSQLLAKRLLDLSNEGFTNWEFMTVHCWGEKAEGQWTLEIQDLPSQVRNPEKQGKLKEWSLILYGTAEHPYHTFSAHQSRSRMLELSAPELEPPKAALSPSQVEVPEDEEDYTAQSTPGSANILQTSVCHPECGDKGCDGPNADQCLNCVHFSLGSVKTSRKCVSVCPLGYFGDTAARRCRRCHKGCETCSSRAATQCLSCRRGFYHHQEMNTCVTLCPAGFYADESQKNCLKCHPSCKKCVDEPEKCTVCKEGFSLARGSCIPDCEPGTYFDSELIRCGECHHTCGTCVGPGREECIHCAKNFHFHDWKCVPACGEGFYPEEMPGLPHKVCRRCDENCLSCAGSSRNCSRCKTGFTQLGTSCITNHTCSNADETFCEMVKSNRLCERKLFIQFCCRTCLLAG
# T2: PC5a (Mus musculus, UniProt Q04592)
# T2 construct: expressed in transfected cells; host or cells: CHO-FD11 Tet-On cells, transient co-transfection with pBI-FGE-HA
# T2 sequence (Q04592 117-915 isoform Q04592-2 limits assumed): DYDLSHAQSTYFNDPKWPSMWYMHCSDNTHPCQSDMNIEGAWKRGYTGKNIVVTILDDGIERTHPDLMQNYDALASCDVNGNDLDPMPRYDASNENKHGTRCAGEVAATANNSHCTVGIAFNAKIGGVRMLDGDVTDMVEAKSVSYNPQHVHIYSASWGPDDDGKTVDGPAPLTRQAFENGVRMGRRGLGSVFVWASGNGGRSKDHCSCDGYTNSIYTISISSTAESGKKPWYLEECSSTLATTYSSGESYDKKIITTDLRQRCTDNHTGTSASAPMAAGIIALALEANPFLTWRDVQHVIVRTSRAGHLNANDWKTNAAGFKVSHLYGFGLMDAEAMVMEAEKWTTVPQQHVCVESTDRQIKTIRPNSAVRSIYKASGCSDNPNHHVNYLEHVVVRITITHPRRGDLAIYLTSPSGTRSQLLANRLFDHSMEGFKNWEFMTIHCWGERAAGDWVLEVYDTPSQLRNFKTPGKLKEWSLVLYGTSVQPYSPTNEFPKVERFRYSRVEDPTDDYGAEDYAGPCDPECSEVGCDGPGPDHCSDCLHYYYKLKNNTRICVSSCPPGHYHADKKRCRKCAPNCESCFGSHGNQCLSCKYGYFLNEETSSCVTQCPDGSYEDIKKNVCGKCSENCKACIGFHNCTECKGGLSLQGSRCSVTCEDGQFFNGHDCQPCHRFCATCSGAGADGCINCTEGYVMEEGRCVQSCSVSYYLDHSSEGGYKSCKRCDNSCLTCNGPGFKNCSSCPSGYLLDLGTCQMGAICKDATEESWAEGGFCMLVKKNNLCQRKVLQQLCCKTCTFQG
# Key:
# human PACE4 = target: T1, human PACE4; assay: FGE processing in CHO-FD11 Tet-On cells co-expressing PACE4; assay type: cell-based; settings: PACE4 coexpression
# Source text: (§1) The resulting constructs were verified by full-length sequencing of the coding region to exclude any PCR prone errors. Plasmids for expression of the PCs encoding human furin (Gene ID 5045), human PACE4 (=PCSK6, Gene ID 5046), murine […] (=Pcsk5, Gene ID 18552) and rat PC7 (=Pcsk7, Gene ID 29606) were kindly provided by Abdel-Majid Khatib (18). Note that the PC cDNAs were encoded as pIRES constructs coding also for enhanced green fluorescence protein (EGFP) such that EGFP expression levels serve as a measure of the expression levels of PCs.
# (§2) 3 μg of pSB-FGE-RGS-His6 vector was used for single transfections of HT1080, HeLa, HEK 293, BHK and CHO cells. Conditioned medium was collected after 24 h and centrifuged (500×g, 5 min) Cells were washed once with PBS, treated with trypsin (Lonza) and pelleted by 250×g to remove the medium. Cell pellets were resuspended in PBS (pH 7.4) containing protease inhibitor (PI) cocktail (Sigma) and lysed by sonication 3×10 s on ice. For co-expression of FGE with one of the PCs in CHO-FD11 Tet-On cells 2 μg of pBI-FGE-HA and 2 μg of the plasmids encoding PCs (see above) were used for transient transfection. In case of transient transfections using pBI-vector constructs the protein expression was induced by replenishing the medium with medium containing 2 μg/mL doxycycline (BD Biosciences) at 5 h post-transfection. […]
# PC5a = target: T2, PC5a; assay: FGE processing in CHO-FD11 Tet-On cells co-expressing PC5a; assay type: cell-based, murine; settings: PC5a coexpression
# Source text: as §1, §2
molecule,measurement,setting,value
"FGE: human wild type full length formylglycine generating enzyme with RYSR furin cleavage motif, SEQ ID NO:2 (protein, cloned matured acitve full length FGE with 6x His tag on C-terminus) ADEFSQEAGTGAGAGSLAGSCGCGTPQRPGAHGSSAAAHRYSREANAPGPVPGERQLAHSKMVPIPAGVFTMGTDDPQIKQDGEAPARRVTIDAFYMDAYEVSNTEFEKFVNSTGYLTEAEKFGDSFVFEGMLSEQVKTNIQQAVAAAPWWLPVKGANWRHPEGPDSTILHRPDHPVLHVSWNDAVAYCTWAGKRLPTEAEWEYSCRGGLHNRLFPWGNKLQPKGQHYANIWQGEFPVTNTGEDGFQGTAPVDAFPPNGYGLYNIVGNAWEWTSDWWTVHHSVEETLNPKGPPSGKDRVKKGGSYMCHRSYCYRYRCAARSQNTPDSSASNLGFRCAADRLPTMDSGRGSHHHHHHH",processing of FGE,human PACE4,low efficiency
same,processing of FGE,PC5a,low efficiency
